Experimental data reported in article PMC10397247.
Like-named read-outs stand apart in the source and are kept apart here. One block for each binder: values may come before it.

Assays:
Assay in all cases: two-hybrid library CCmax;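 also: natural log of median RNA to DNA barcode read ratio; higher means stronger binding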
4H376-AA = target: T1, 4H376-AA; conditions: mean of both orientations
T1 chain: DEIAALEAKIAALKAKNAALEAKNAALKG

4H1629-AA = target: T2, 4H1629-AA; conditions: mean of both orientations
T2 chain: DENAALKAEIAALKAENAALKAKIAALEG

4H3588-AA = target: T3, 4H3588-AA; conditions: mean of both orientations
T3 chain: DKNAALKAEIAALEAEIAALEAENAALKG

4H32-AA = target: T4, 4H32-AA; conditions: mean of both orientations
T4 chain: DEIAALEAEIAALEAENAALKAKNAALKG

4H1874-AA = target: T5, 4H1874-AA; conditions: mean of both orientations
T5 chain: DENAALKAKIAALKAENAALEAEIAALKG

4H1351-AA = target: T6, 4H1351-AA; conditions: mean of both orientations
T6 chain: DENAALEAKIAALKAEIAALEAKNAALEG

4H2553-AA = target: T7, 4H2553-AA
T7 chain: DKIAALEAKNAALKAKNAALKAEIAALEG

4H3015-AA = target: T8, 4H3015-AA; conditions: mean of both orientations
T8 chain: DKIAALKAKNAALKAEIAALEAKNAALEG

4H3073-AA = target: T9, 4H3073-AA; conditions: mean of both orientations
T9 chain: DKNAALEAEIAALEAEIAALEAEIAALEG

4H3438-AA = target: T10, 4H3438-AA; conditions: mean of both orientations
T10 chain: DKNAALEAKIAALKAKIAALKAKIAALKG

4H2343-AA = target: T11, 4H2343-AA; conditions: mean of both orientations
T11 chain: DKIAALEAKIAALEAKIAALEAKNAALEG

4H2393-AA = target: T12, 4H2393-AA; conditions: mean of both orientations
T12 chain: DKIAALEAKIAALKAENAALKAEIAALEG

4H566-AA = target: T13, 4H566-AA; conditions: mean of both orientations
T13 chain: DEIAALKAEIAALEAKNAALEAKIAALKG

4H1636-AA = target: T14, 4H1636-AA; conditions: mean of both orientations
T14 chain: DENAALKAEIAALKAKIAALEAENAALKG

4H678-AA = target: T15, 4H678-AA; conditions: mean of both orientations
T15 chain: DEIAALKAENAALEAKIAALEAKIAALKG

4H2729-AA = target: T16, 4H2729-AA; conditions: mean of both orientations
T16 chain: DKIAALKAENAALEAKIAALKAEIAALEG

AP7-AA = target: T17, AP7-AA; conditions: mean of both orientations
T17 chain: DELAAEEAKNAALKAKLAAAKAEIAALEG

AP2-AA = target: T18, AP2-AA; conditions: mean of both orientations
T18 chain: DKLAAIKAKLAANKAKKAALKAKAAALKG

P1-AA = target: T19, P1-AA; conditions: mean of both orientations
T19 chain: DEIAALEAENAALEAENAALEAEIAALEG

4H2642-AA = target: T20, 4H2642-AA; conditions: mean of both orientations
T20 chain: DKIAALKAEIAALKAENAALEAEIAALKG

4H2883-AA = target: T21, 4H2883-AA; conditions: mean of both orientations
T21 chain: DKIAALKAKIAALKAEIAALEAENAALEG

4H3343-AA = target: T22, 4H3343-AA; conditions: mean of both orientations
T22 chain: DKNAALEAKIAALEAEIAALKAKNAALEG

P8-AA = target: T23, P8-AA; conditions: mean of both orientations
T23 chain: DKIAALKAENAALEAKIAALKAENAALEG

4H2165-AA = target: T24, 4H2165-AA; conditions: mean of both orientations
T24 chain: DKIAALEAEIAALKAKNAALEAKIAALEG

4H993-AA = target: T25, 4H993-AA; conditions: mean of both orientations
T25 chain: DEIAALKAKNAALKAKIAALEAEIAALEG

P4-AA = target: T26, P4-AA; conditions: mean of both orientations
T26 chain: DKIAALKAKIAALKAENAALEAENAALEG

AP3-AA = target: T27, AP3-AA; conditions: mean of both orientations
T27 chain: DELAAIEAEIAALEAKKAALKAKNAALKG

4H342-AA = target: T28, 4H342-AA; conditions: mean of both orientations
T28 chain: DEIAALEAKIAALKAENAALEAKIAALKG

4H2078-AA = target: T29, 4H2078-AA; conditions: mean of both orientations
T29 chain: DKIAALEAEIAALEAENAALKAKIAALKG

4H43-AA = target: T30, 4H43-AA; conditions: mean of both orientations
T30 chain: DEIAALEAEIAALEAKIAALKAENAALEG

O11-AA = target: T31, O11-AA; conditions: mean of both orientations
T31 chain: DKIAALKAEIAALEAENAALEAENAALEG

O14-AA = target: T32, O14-AA; conditions: mean of both orientations
T32 chain: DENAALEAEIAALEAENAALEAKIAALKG

4H2736-AA = target: T33, 4H2736-AA; conditions: mean of both orientations
T33 chain: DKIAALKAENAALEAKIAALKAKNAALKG

4H337-AA = target: T34, 4H337-AA; conditions: mean of both orientations
T34 chain: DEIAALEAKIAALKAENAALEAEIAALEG

4H2888-AA = target: T35, 4H2888-AA; conditions: mean of both orientations
T35 chain: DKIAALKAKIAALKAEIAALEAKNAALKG

B2: 4H1310-AA (peptide)
chain: DENAALEAKIAALEAENAALKAKIAALKG
interaction score (4H1629-AA): -0.348
interaction score (4H3588-AA): -1.22
interaction score (4H32-AA): -1.07
interaction score (4H1874-AA): 2.14
interaction score (4H1351-AA): -1.27
interaction score (4H2553-AA; mean of both orientations): -1.34

B4: 4H1401-AA (peptide)
chain: DENAALEAKIAALKAKNAALKAEIAALEG
interaction score (4H2393-AA): -1.43
interaction score (4H1629-AA): -1.08
interaction score (4H566-AA): 1.79
interaction score (4H1636-AA): -1.81
interaction score (4H678-AA): -0.21
interaction score (4H3588-AA): -0.275
interaction score (4H32-AA): 0.0762
interaction score (4H2729-AA): 0.705
interaction score (AP7-AA): -1.37
interaction score (AP2-AA): -1.98
interaction score (4H1874-AA): 1.26
interaction score (P1-AA): -0.911
interaction score (4H2642-AA): 1.3
interaction score (4H2883-AA): -1.43
interaction score (4H3343-AA): -1.44
interaction score (P8-AA): 0.854
interaction score (4H2165-AA): -1.62
interaction score (4H993-AA): -1.26
interaction score (P4-AA): -1.93
interaction score (AP3-AA): -0.918
interaction score (4H342-AA): 2.15
interaction score (4H2553-AA): -1.65
interaction score (4H2078-AA): 1.93

B7: 4H1350-AA (peptide)
chain: DENAALEAKIAALKAEIAALEAKIAALKG
interaction score (4H43-AA): 2.09
interaction score (O11-AA): -0.612
interaction score (O14-AA): -0.655
interaction score (4H2736-AA): -1.22
interaction score (4H337-AA): 1.52
interaction score (4H2888-AA): 2.21

B8: 4H171-AA (peptide)
chain: DEIAALEAENAALEAKIAALKAENAALEG
interaction score (O11-AA): -1.82
interaction score (O14-AA): -1.07

The next lines start with the values.

interaction score (4H376-AA): -1.87
B1: 4H1626-AA (peptide)
chain: DENAALKAEIAALKAENAALKAEIAALKG

interaction score (4H3015-AA): -1.11
interaction score (4H3073-AA): -0.681
interaction score (4H3438-AA): -1.2
interaction score (4H2343-AA): -2.02
B3: 4H2253-AA (peptide)
chain: DKIAALEAENAALKAEIAALKAKIAALEG

interaction score (4H3588-AA): -1.56
interaction score (4H32-AA): -1.5
interaction score (4H1874-AA): -1.25
interaction score (4H2553-AA; mean of both orientations): -1.84
B5: 4H1845-AA (peptide)
chain: DENAALKAKIAALEAKNAALEAKIAALEG

interaction score (4H566-AA): -0.683
interaction score (4H678-AA): -0.771
interaction score (AP7-AA): -1.35
interaction score (AP2-AA): -1.36
interaction score (P1-AA): -1.64
interaction score (P8-AA): -0.645
interaction score (4H993-AA): 1.33
interaction score (P4-AA): -0.573
interaction score (AP3-AA): -1.06
B6: 4H3606-AA (peptide)
chain: DKNAALKAEIAALEAENAALEAKIAALKG
